According to patent publication US8367390B2, “Galactanase variants” (Novozymes A/S, priority 2002, dated 2013):

Experiment: Activity with ONPG, release of o-nitrophenol (ONP) at 405 nm
Assay type: biochemical
Conditions: for Time (min) to increase A405 by: 0.025 / Time (min) to increase A405 by: 0.05 / Time (min) to increase A405 by: 0.1 / Time (min) to increase A405 by: 0.2 / Time (min) to increase A405 by: 0.4 / Time (min) to increase A405 by: 0.8 / Time (min) to increase A405 by: 1.6 / Time (min) to increase A405 by: 3.2: Table 8, ONPG 5 mg/ml
Description: The activity of HIGAL and MTGAL with ONPG was tested by mixing 200 microliters (normally 5.5 mg/ml) ONPG in 50 mM sodium acetate, 1 mM CaCl2, 0.01% Triton X-100, pH 6.5 with 25 microliters galactanase (normally 1 mg/ml) in the well of a microtiter plate. Release of o-nitrophenol (ONP) was measured at room temperature at 405 nm every 10 seconds normally for 30 min on a SpectraMaxPlus (Molecular Devices). Effects on the observed release of ONP was studied with varied enzyme concentration, ONPG concentration and with addition of galactose (Gal), beta-1,4-galactobiose (Gal2) (Megazyme), beta-1,4-galactotriose (Gal3), beta-1,4-galactotetraose (Gal4), glucose (Glu), arabinose (Ara), galacturonic acid (GalA), maltose (Mal) or maltotriose (Mal3).
In Tables 8-11 below, incubation times required to increase the observed absorbance at 405 nm by given amounts are listed. Cells marked ‘n.r.’ indicate that the increase in absorbance was not reached in the experiment. In general, the initial increase in absorbance at 405 nm was very slow, but after a lag phase the rate of ONP release often increased drastically—often approximately exponentially. The most likely explanation for the observed kinetics is that ONPG reacts with the enzyme to give an enzyme-galactosyl intermediate which hydrolyses very slowly. Instead, the Gal of the intermediate is released by transglycosylation, initially with ONPG or added sugar as acceptor. In cases where the rate of ONP release increases, these transglycosylation products are even better acceptors than the initial ones. […] More likely, Gal inhibits the subsequent transglycosylation, which requires binding of ONPG to the +1 and +2 subsites, e.g., by binding to the +2 subsite. With 50 mg/ml Gal added (results not shown) release of ONP was even slower with only insignificant increase of absorbance at 405 nm in 30 min.

B1: MTGAL: GH Family 53 galactanase from Myceliophthora thermophila, SEQ ID NO: 1 (wild type parent) (protein, listed as Myceliophthora thermophila)
chain: ALTYRGVDWSSVVVEERAGVSYKNTNGNAQPLENILAANGVNTVRQRVWVNPADGNYNLDYNIAIAKRAKAAGLGVYIDFHYSDTWADPAHQTMPAGWPSDIDNLSWKLYNYTLDAANKLQNAGIQPTIVSIGNEIRAGLLWPTGRTENWANIARLLHSAAWGIKDSSLSPKPKIMIHLDNGWDWGTQNWWYTNVLKQGTLELSDFDMMGVSFYPFYSSSATLSALKSSLDNMAKTWNKEIAVVETNWPISCPNPRYSFPSDVKNIPFSPEGQTTFITNVANIVSSVSRGVGLFYWEPAWIHNANLGSSCADNTMFSQSGQALSSLSVFQRI
modifications: mat_peptide (1)..()
Gal 5 mg/ml
  Slowing of ONP release by addition of Gal: about a factor of two
Enzyme 28 μg/ml, no sugar
  Time (min) to increase A405 by: 0.025: 40.4 min
  Time (min) to increase A405 by: 0.05: n.r.
  Time (min) to increase A405 by: 0.1: n.r.
  Time (min) to increase A405 by: 0.2: n.r.
  Time (min) to increase A405 by: 0.4: n.r.
  Time (min) to increase A405 by: 0.8: n.r.
  Time (min) to increase A405 by: 1.6: n.r.
  Time (min) to increase A405 by: 3.2: n.r.
Enzyme 55 μg/ml, Gal 5 mg/ml
  Time (min) to increase A405 by: 0.025: 40.2 min
  Time (min) to increase A405 by: 0.05: n.r.
  Time (min) to increase A405 by: 0.1: n.r.
  Time (min) to increase A405 by: 0.2: n.r.
  Time (min) to increase A405 by: 0.4: n.r.
  Time (min) to increase A405 by: 0.8: n.r.
  Time (min) to increase A405 by: 1.6: n.r.
  Time (min) to increase A405 by: 3.2: n.r.
Enzyme 55 μg/ml, no sugar
  Time (min) to increase A405 by: 0.025: 29.9 min
  Time (min) to increase A405 by: 0.05: 42.5 min
  Time (min) to increase A405 by: 0.1: 54.5 min
  Time (min) to increase A405 by: 0.2: n.r.
  Time (min) to increase A405 by: 0.4: n.r.
  Time (min) to increase A405 by: 0.8: n.r.
  Time (min) to increase A405 by: 1.6: n.r.
  Time (min) to increase A405 by: 3.2: n.r.
Enzyme 110 μg/ml, Gal 5 mg/ml
  Time (min) to increase A405 by: 0.025: 26.9 min
  Time (min) to increase A405 by: 0.05: 44.5 min
  Time (min) to increase A405 by: 0.1: n.r.
  Time (min) to increase A405 by: 0.2: n.r.
  Time (min) to increase A405 by: 0.4: n.r.
  Time (min) to increase A405 by: 0.8: n.r.
  Time (min) to increase A405 by: 1.6: n.r.
  Time (min) to increase A405 by: 3.2: n.r.
Enzyme 110 μg/ml, no sugar
  Time (min) to increase A405 by: 0.025: 14.0 min
  Time (min) to increase A405 by: 0.05: 20.5 min
  Time (min) to increase A405 by: 0.1: 26.4 min
  Time (min) to increase A405 by: 0.2: 31.4 min
  Time (min) to increase A405 by: 0.4: 34.5 min
  Time (min) to increase A405 by: 0.8: 39.2 min
  Time (min) to increase A405 by: 1.6: 43.9 min
  Time (min) to increase A405 by: 3.2: 46.7 min
